This is an account of results in US20210380647A1 (AFFILOGIC, published 2021).

One experiment addresses T1, murine TNFa (murine, UniProt P06804 80-235).
T1 construct: also called mTNFa; mouse TNF
T1 sequence (looked up): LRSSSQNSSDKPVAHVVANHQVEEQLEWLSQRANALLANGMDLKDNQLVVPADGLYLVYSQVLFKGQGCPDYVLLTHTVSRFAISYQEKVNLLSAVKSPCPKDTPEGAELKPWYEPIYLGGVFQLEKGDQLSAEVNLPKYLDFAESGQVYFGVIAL
Briefly: ELISA at a single concentration (EC100) on a plate functionalized with mTNFa (FIG. 3). For orientation: In an ELISA, binding on a coated surface is turned into a signal by an enzyme label.

Another experiment addresses T2, TNFa mutant S95C/G148C (UniProt P01375 77-233, S95C; G148C, disulfide bridges between subunits via C95 and C148).
T2 construct: Positions probably count on the mature soluble chain; also called stabilized trimer of TNFa; stabilized TNFa trimer
Briefly: ELISA of N11 on TNFa mutants (FIG. 12).

The target of another experiment is T3, TNFa mutant Y119A (UniProt P01375 77-233, Y119A).
T3 construct: The text speaks of 'Y119 mutants'; also called Y119 mutants; Y119 TNFalpha variants
T3 sequence (P01375 77-233 Y195A): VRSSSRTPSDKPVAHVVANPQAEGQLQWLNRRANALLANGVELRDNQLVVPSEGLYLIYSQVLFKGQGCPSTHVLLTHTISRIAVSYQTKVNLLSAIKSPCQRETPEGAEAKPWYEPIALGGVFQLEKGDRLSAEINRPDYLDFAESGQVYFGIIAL
Kind of experiment: ELISA of N11 on Y119 mutants (FIG. 12A).

For a further experiment, the target named is T4, TNFa mutant Y119R (UniProt P01375 77-233, Y119R).
T4 construct: The text speaks of 'Y119 mutants'; also called Y119 mutants; Y119 TNFalpha variants
T4 sequence (P01375 77-233 Y195R): as the sequence (P01375 77-233 Y195A) above, with A119R counted along it
Kind of experiment: ELISA of N11 on Y119 mutants (FIG. 12A).

T2 sequence (P01375 77-233 S171C/G224C): as the sequence (P01375 77-233 Y195A) above, with S95C, A119Y, G148C counted along it
Description for murine TNFa: Biotinylated antigens are immobilized on streptavidin-coated plates as described above, except that the blocking step is performed for 1h at room temperature. For the identification of the positive clones, 100 μl of E. coli crude extracts are applied to wells with or without immobilized antigen for 1 h at RT. The binding is visualized using anti-RGSHis antibody HRP conjugate (Qiagen) which detects RGSHis6 tag from the variant and a solution at 1 mg/ml of o-phenylenediamine substrate (OPD) in revelation buffer (0.05 M citric acid, 0.05% hydrogen peroxide). Absorbance at 450 nm is measured using an ELISA plate reader. Quantitative ELISAs is done in the same manner, except purified protein is used.
A plate was functionalized with hTNFa and mTNFa.

B1: N11 (designed binder)
chain: MVKVKFVMFGKEKEVDTSKIVHVMRQGKLVHFWYEDNGKIDKGFVPEKDAPKELLDMLARAEREK
notes: Variant of Sac7d selected by ribosome display on biotinylated hTNFa; also called Sac7d variant N11; Nanofitin N11
For B1, the binding result with murine TNFa is “binds”; with TNFa mutant S95C/G148C, “no binding”; with TNFa mutant Y119A, “binds”; with TNFa mutant Y119R, “binds”.
